From patent US6008019A, “Plasminogen activator from saliva of the vampire bat” (Schering Aktiengesellschaft, priority 1989, dated 1999)

Tests used:
[1] = substrate: N=C(N)NCCC[C@H](NC(=O)CNC(=O)[C@@H]1CCC(=O)N1)C(=O)Nc1ccc([N+](=O)[O-])cc1; test: Km determination of amidolytic chromogenic substrates with t-PA; format: biochemical; settings: other: t-PA, 3 units per hole, 100 mM Tris pH 8.0/100 mM NaCl/0.01% Tween 80, 37° C., Lineweaver-Burk plot
Description: (§1) In a 96-hole plate, respectively 90 μl of 100 mM Tris pH 8.0/100 mM NaCl/0.01% "Tween" 80 and 50 μl of the corresponding chromogenic substrate (all from Kabi Vitrum, Stockholm, Sweden) in the final concentrations of 0.03/0.06/0.1/0.3/0.6 and 1 mM are incubated with 10 μl (3 units per hole) of the corresponding plasminogen activator at 37° C., and the thus-released p-nitroaniline is determined photometrically at 405 nm at various points in time between 0-7 hours. The resultant data are evaluated with the aid of a Lineweaver-Burk plot, and the Km value is determined (Segel, I. H., Enzyme Kinetics, John Wiley and Sons, New York). The following chromogenic substrates were utilized:

[2] = substrate: CC[C@@H](C)[C@@H](N)C(=O)N1CCC[C@H]1C(=O)N[C@@H](CCCNC(=N)N)C(=O)Nc1ccc([N+](=O)[O-])cc1; test: Km determination of amidolytic chromogenic substrates with v-PA β; format: biochemical, Desmodus rotundus; settings: other: v-PA β, 3 units per hole, 100 mM Tris pH 8.0/100 mM NaCl/0.01% Tween 80, 37° C., Lineweaver-Burk plot
Description: as §1

[3] = substrate: N=C(N)NCCC[C@H](NC(=O)CNC(=O)[C@@H]1CCC(=O)N1)C(=O)Nc1ccc([N+](=O)[O-])cc1; test: as above; format: biochemical, Desmodus rotundus; settings: other: v-PA β, 3 units per hole, 100 mM Tris pH 8.0/100 mM NaCl/0.01% Tween 80, 37° C., Lineweaver-Burk plot
Description: as §1

[4] = substrate: CC[C@@H](C)[C@@H](N)C(=O)N1CCC[C@H]1C(=O)N[C@@H](CCCNC(=N)N)C(=O)Nc1ccc([N+](=O)[O-])cc1; test: Km determination of amidolytic chromogenic substrates with v-PA α1; format: biochemical, Desmodus rotundus; settings: other: v-PA α1, 3 units per hole, 100 mM Tris pH 8.0/100 mM NaCl/0.01% Tween 80, 37° C., Lineweaver-Burk plot
Description: as §1

[5] = substrate: N=C(N)NCCC[C@H](NC(=O)CNC(=O)[C@@H]1CCC(=O)N1)C(=O)Nc1ccc([N+](=O)[O-])cc1; test: as above; format: biochemical, Desmodus rotundus; settings: other: v-PA α1, 3 units per hole, 100 mM Tris pH 8.0/100 mM NaCl/0.01% Tween 80, 37° C., Lineweaver-Burk plot
Description: as §1

B1: t-PA (tissue-type plasminogen activator) (Homo sapiens) (protein)
chain: SYQVICRDEKTQMIYQQHQSWLRPVLRSNRVEYCWCNSGRAQCHSVPVKSCSEPRCFNGGTCQQALYFSDFVCQCPEGFAGKCCEIDTRATCYEDQGISYRGTWSTAESGAECTNWNSSALAQKPYSGRRPDAIRLGLGNHNYCRNPDRDSKPWCYVFKAGKYSSEFCSTPACSEGNSDCYFGNGSAYRGTHSLTESGASCLPWNSMILIGKVYTAQNPSAQALGLGKHNYCRNPDGDAKPWCHVLKNRRLTWEYCDVPSCSTCGLRQYSQPQFRIKGGLFADIASHPWQAAIFAKHRRSPGERFLCGGILISSCWILSAAHCFQERFPPHHLTVILGRTYRVVPGEEEQKFEVEKYIVHKEFDDDTYDNDIALLQLKSDSSRCAQESSVVRTVCLPPADLQLPDWTECELSGYGKHEALSPFYSERLKEAHVRLYPSSRCTSQHLLNRTVTDNMLCAGDTRSGGPQANLHDACQGDSGGPLVCLNDGRMTLVGIISWGLGCGQKDVPGVYTKVTNYLDWIRDNMRP
With B1 the Km [1] was 2000 µM.

B2: Desmodus rotundus saliva plasminogen activator v-PA β (Desmodus rotundus) (protein)
chain: AYGGCSELRCFNGGTCWQAASFSDFVCQCPKGYTGKQCEVDTHATCYKDQGVTYRGTWSTSESGAQCINWNSNLLTRRTYNGRRSDAITLGLGNHNYCRNPDNNSKPWCYVIKASKFILEFCSVPVCSKATCGLRKYKEPQLHSTGGLFTDITSHPWQAAIFAQNRRSSGERFLCGGILISSCWVLTAAHCFQERYPPQHLRVVLGRTYRVKPGKEEQTFEVEKCIIHEEFDDDTYNNDIALLQLKSGSPQCAQESDSVRAICLPEANLQLPDWTECELSGYGKHKSSSPFYSEQLKEGHVRLYPSSRCTSKFLFNKTVTNNMLCAGDTRSGEIYPNVHDACQGDSGGPLVCMNDNHMTLLGIISWGVGCGEKDIPGVYTKVTNYLGWIRDNMRP
notes: from tissue
Protein B2 has a Km [2] of 2000 µM and a Km [3] of 2000 µM.

B3: Desmodus rotundus saliva plasminogen activator v-PA α1 (Desmodus rotundus) (protein)
chain: AYGVACKDEITQMTYRRQESWLRPEVRSKRVEHCQCDRGQARCHTVPVNSCSEPRCFNGGTCWQAVYFSDFVCQCPAGYTGKRCEVDTRATCYEGQGVTYRGTWSTAESRVECINWNSSLLTRRTYNGRMPDAFNLGLGNHNYCRNPNGAPKPWCYVIKAGKFTSESCSVPVCSKATCGLRKYKEPQLHSTGGLFTDITSHPWQAAIFAQNRRSSGERFLCGGILISSCWVLTAAHCFQESYLPDQLKVVLGRTYRVKPGEEEQTFKVKKYIVHKEFDDDTYNNDIALLQLKSDSPQCAQESDSVRAICLPEANLQLPDWTECELSGYGKHKSSSPFYSEQLKEGHVRLYPSSRCAPKFLFNKTVTNNMLCAGDTRSGEIYPNVHDACQGDSGGPLVCMNDNHMTLLGIISWGVGCGEKDVPGVYTKVTNYLGWIRDNMHL
notes: from tissue
With B3 the Km [4] was 1000 µM and the Km [5] was 2000 µM.
